B1: RS9.F6 (antibody, V domains shown)
VH: QVQLQQPGAELVKPGASVKLSCKASGYTFTSYWMHWVKQSPGRGLEWIGRSDPTTGGTNYNEKFKTKATLTVDKPSSTAYMQLSSLTSDDSAVYYCVRTSGTGDYWGQGTSLTVSS
VL: DVVMTQTPLSLPVSLGDQASISCRSSQSLVHNNGNTFLHWYLQKPGQSPKLLIYKVSNRFSGVPDRFSGSGSGTDFTLKISRVEAEDLGVYFCSQTTHVPPTFGGGTKLEIK
B2: RS9.F6/3C.35.21.17 (bispecific antibody)
heavy 1: QVQLQQPGAELVKPGASVKLSCKASGYTFTSYWMHWVKQSPGRGLEWIGRSDPTTGGTNYNEKFKTKATLTVDKPSSTAYMQLSSLTSDDSAVYYCVRTSGTGDYWGQGTSLTVSSASTKGPSVFPLAPSSKSTSGGTAALGCLVKDYFPEPVTVSWNSGALTSGVHTFPAVLQSSGLYSLSSVVTVPSSSLGTQTYICNVNHKPSNTKVDKKVEPKSCDKTHTCPPCPAPEAAGGPSVFLFPPKPKDTLMISRTPEVTCVVVDVSHEDPEVKFNWYVDGVEVHNAKTKPREEQYNSTYRVVSVLTVLHQDWLNGKEYKCKVSNKALGAPIEKTISKAKGQPREPQVYTLPPSRDELTKNQVSLWCLVKGFYPSDIAVLWESYGTEWASYKTTPPVLDSDGSFFLYSKLTVTKEEWQQGFVFSCSVMHEALHNHYTQKSLSLSPGK
heavy 2: QVQLQQPGAELVKPGASVKLSCKASGYTFTSYWMHWVKQSPGRGLEWIGRSDPTTGGTNYNEKFKTKATLTVDKPSSTAYMQLSSLTSDDSAVYYCVRTSGTGDYWGQGTSLTVSSASTKGPSVFPLAPSSKSTSGGTAALGCLVKDYFPEPVTVSWNSGALTSGVHTFPAVLQSSGLYSLSSVVTVPSSSLGTQTYICNVNHKPSNTKVDKKVEPKSCDKTHTCPPCPAPEAAGGPSVFLFPPKPKDTLMISRTPEVTCVVVDVSHEDPEVKFNWYVDGVEVHNAKTKPREEQYNSTYRVVSVLTVLHQDWLNGKEYKCKVSNKALGAPIEKTISKAKGQPREPQVYTLPPSRDELTKNQVSLSCAVKGFYPSDIAVEWESNGQPENNYKTTPPVLDSDGSFFLVSKLTVDKSRWQQGNVFSCSVMHEALHNHYTQKSLSLSPGK
light: B1 VL

Assays:
Mouse TREM2, on cells = biological target: T1, Mouse TREM2, on cells (mouse, UniProt Q99NH8 19-227); test: FACS cell binding; FIG. 1D
T1 chain: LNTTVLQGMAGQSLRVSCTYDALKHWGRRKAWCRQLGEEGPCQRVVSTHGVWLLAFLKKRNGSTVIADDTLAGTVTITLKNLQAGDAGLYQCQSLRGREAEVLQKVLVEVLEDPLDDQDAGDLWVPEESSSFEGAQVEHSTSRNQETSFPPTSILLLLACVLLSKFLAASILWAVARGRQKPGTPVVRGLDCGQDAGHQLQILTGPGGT

[1] = biological target: T2, His-tagged TREM2 ECD (ecto domain residues 19-172 of human TREM2, C-terminal 6X-His tag) (UniProt Q9NZC2 19-172); test: SPR (Biacore)
T2 chain: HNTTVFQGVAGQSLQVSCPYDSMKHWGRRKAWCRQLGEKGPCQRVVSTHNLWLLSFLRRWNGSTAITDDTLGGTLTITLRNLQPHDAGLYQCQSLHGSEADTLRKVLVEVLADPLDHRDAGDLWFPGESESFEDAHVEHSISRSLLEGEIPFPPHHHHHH

| Binder | EC50 (Mouse TREM2, on cells) | Kd [1] |
| --- | --- | --- |
| B1 | 6.81 nM | – |
| B2 | – | 2.27 nM |

Reference: US20200277373A1 (published 2020)
